According to US20210261648A1 (published 2021):

T1: FcγRIIa type H extracellular domain with C-terminal His tag (human, UniProt P12318 34-217)
T1 construct: extracellular domain; also called FcγRIIaH; FcgRIIaH; not shown: His tag attached to the C terminus
T1 sequence (looked up): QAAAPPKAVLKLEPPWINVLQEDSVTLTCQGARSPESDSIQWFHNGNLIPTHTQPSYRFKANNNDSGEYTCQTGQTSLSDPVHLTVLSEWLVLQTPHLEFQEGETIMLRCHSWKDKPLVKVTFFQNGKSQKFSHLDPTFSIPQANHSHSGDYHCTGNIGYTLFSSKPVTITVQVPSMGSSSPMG

T2: FcγRIIb extracellular domain with C-terminal His tag (human, UniProt P31994 43-217)
T2 construct: extracellular domain; For crystallography it was expressed with kifunensine and trimmed with Endo F1; also called FcgRIIb; FcγRIIb extracellular region; not shown: His tag attached to the C terminus
T2 sequence (looked up): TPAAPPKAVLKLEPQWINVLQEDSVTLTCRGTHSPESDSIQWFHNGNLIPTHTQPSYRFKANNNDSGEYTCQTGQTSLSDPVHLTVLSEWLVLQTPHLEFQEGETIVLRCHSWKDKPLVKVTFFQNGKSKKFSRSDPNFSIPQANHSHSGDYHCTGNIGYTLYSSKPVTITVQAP


Tests used:
Assay in all cases: SPR binding amount, relative to IL6R-BF648/IL6R-L
[1] = target: T3, FcγRIa extracellular domain with C-terminal His tag (human, UniProt P12314 16-292)
T3 construct: also called FcgRIa; not shown: His tag attached to the C terminus
T3 sequence (P12314 16-292): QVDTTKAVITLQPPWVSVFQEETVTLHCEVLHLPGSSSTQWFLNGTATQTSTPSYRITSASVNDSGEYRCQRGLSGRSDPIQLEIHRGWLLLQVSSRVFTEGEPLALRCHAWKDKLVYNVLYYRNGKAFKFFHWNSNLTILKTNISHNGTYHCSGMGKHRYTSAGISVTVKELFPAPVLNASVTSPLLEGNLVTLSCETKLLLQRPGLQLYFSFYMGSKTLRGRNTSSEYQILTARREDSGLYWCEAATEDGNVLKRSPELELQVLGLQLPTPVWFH

[2] = target: T1, FcγRIIa type H extracellular domain …
[3] = target: T2, FcγRIIb extracellular domain with …

relative binding activity (IL6R-BF648/IL6R-L = 100) [1]	relative binding activity (IL6R-BF648/IL6R-L = 100) [2]	relative binding activity (IL6R-BF648/IL6R-L = 100) [3]	Binder
118	135	113	IL6R-BP121/IL6R-L (antibody, human IgG1, kappa, Alterations introduced into IL6R-B3) heavy: QVQLQESGPGLVKPSETLSLTCAVSGHSISHDHAWSWVRQPPGEGLEWIGFISYSGITNYNPSLQGRVTISRDNSKNTLYLQMNSLRAEDTAVYYCARSLARTTAMDYWGEGTLVTVSSASTKGPSVFPLAPSSKSTSGGTAALGCLVKDYFPEPVTVSWNSGALTSGVHTFPAVLQSSGLYSLSSVVTVPSSSLGTQTYICNVNHKPSNTKVDKKVEPKSCDKTHTCPPCPAPELLGGDSVFLFPPKPKDTLMISRTPEVTCVVVDVSHEDPEVKFNWYVDGVEVHNAKTKPREEQYNSTYRVVSVLTVLHQDWLNGKEYKCKVSNQALPAPIEKTISKAKGQPREPQVYTLPPSRDELTKNQVSLTCLVKGFYPSDIAVEWESNGQPENNYKTTPPVLDSDGSFFLYSKLTVDKSRWQQGNVFSCSVMHEALHNHYTQESLSLSP light: not shown
113	132	103	IL6R-BP126/IL6R-L (antibody, human IgG1, kappa, Alterations introduced into IL6R-B3) heavy: QVQLQESGPGLVKPSETLSLTCAVSGHSISHDHAWSWVRQPPGEGLEWIGFISYSGITNYNPSLQGRVTISRDNSKNTLYLQMNSLRAEDTAVYYCARSLARTTAMDYWGEGTLVTVSSASTKGPSVFPLAPSSKSTSGGTAALGCLVKDYFPEPVTVSWNSGALTSGVHTFPAVLQSSGLYSLSSVVTVPSSSLGTQTYICNVNHKPSNTKVDKKVEPKSCDKTHTCPPCPAPELLGGDSVFLFPPKPKDTLMISRTPEVTCVVVDVSHEDPEVKFNWYVDGVEVHNAKTKPREEQYNSTYRVVSVLTVLHQDWLNGKEYKCKVSNLALPAPIEKTISKAKGQPREPQVYTLPPSRDELTKNQVSLTCLVKGFYPSDIAVEWESNGQPENNYKTTPPVLDSDGSFFLYSKLTVDKSRWQQGNVFSCSVMHEALHNHYTQESLSLSP light: not shown
117	103	119	IL6R-BP136/IL6R-L (antibody, human IgG1, kappa, Alterations introduced into IL6R-B3) heavy: QVQLQESGPGLVKPSETLSLTCAVSGHSISHDHAWSWVRQPPGEGLEWIGFISYSGITNYNPSLQGRVTISRDNSKNTLYLQMNSLRAEDTAVYYCARSLARTTAMDYWGEGTLVTVSSASTKGPSVFPLAPSSKSTSGGTAALGCLVKDYFPEPVTVSWNSGALTSGVHTFPAVLQSSGLYSLSSVVTVPSSSLGTQTYICNVNHKPSNTKVDKKVEPKSCDKTHTCPPCPAPELLGGDSVFLFPPKPKDTLMISRTPEVTCVVVDVSHEDPEVKFNWYVDGVEVHNAKTKPREEQYNSTYRVVSVLTVLHQDWLNGKEYKCKVSNAALPAPIEKTISKAKGQPREPQVYTLPPSRDELTKNQVSLTCLVKGFYPSDIAVEWESNGQPENNYKTTPPVLDSDGSFFLYSKLTVDKSRWQQGNVFSCSVMHEALHNHYTQESLSLSP light: not shown

More lines, now with the values behind:

Binder	relative binding activity (IL6R-BF648/IL6R-L = 100) [1]	relative binding activity (IL6R-BF648/IL6R-L = 100) [2]	relative binding activity (IL6R-BF648/IL6R-L = 100) [3]
IL6R-BP112/IL6R-L (antibody, human IgG1, kappa, Alterations introduced into IL6R-B3) heavy: QVQLQESGPGLVKPSETLSLTCAVSGHSISHDHAWSWVRQPPGEGLEWIGFISYSGITNYNPSLQGRVTISRDNSKNTLYLQMNSLRAEDTAVYYCARSLARTTAMDYWGEGTLVTVSSASTKGPSVFPLAPSSKSTSGGTAALGCLVKDYFPEPVTVSWNSGALTSGVHTFPAVLQSSGLYSLSSVVTVPSSSLGTQTYICNVNHKPSNTKVDKKVEPKSCDKTHTCPPCPAPELLGGDSVFLFPPKPKDTLMISRTPEVTCVVVDVSHEDGEVKFNWYVDGVEVHNAKTKPREEQYNSTYRVVSVLTVLHQDWLNGKEYKCKVSNKALPAPIEKTISKAKGQPREPQVYTLPPSRDELTKNQVSLTCLVKGFYPSDIAVEWESNGQPENNYKTTPPVLDSDGSFFLYSKLTVDKSRWQQGNVFSCSVMHEALHNHYTQESLSLSP light: not shown	119	113	157
IL6R-BP116/IL6R-L (antibody, human IgG1, kappa, Alterations introduced into IL6R-B3) heavy: QVQLQESGPGLVKPSETLSLTCAVSGHSISHDHAWSWVRQPPGEGLEWIGFISYSGITNYNPSLQGRVTISRDNSKNTLYLQMNSLRAEDTAVYYCARSLARTTAMDYWGEGTLVTVSSASTKGPSVFPLAPSSKSTSGGTAALGCLVKDYFPEPVTVSWNSGALTSGVHTFPAVLQSSGLYSLSSVVTVPSSSLGTQTYICNVNHKPSNTKVDKKVEPKSCDKTHTCPPCPAPELLGGDSVFLFPPKPKDTLMISRTPEVTCVVVDVSHEDPEVKFNWYVDGVEVHNAKTKPREEQYNSTYRVVSVLTVLHQDWLNGKEYKCKVSNTALPAPIEKTISKAKGQPREPQVYTLPPSRDELTKNQVSLTCLVKGFYPSDIAVEWESNGQPENNYKTTPPVLDSDGSFFLYSKLTVDKSRWQQGNVFSCSVMHEALHNHYTQESLSLSP light: not shown	110	110	108
IL6R-BP117/IL6R-L (antibody, human IgG1, kappa, Alterations introduced into IL6R-B3) heavy: QVQLQESGPGLVKPSETLSLTCAVSGHSISHDHAWSWVRQPPGEGLEWIGFISYSGITNYNPSLQGRVTISRDNSKNTLYLQMNSLRAEDTAVYYCARSLARTTAMDYWGEGTLVTVSSASTKGPSVFPLAPSSKSTSGGTAALGCLVKDYFPEPVTVSWNSGALTSGVHTFPAVLQSSGLYSLSSVVTVPSSSLGTQTYICNVNHKPSNTKVDKKVEPKSCDKTHTCPPCPAPELLGGDSVFLFPPKPKDTLMISRTPEVTCVVVDVSHEDPEVKFNWYVDGVEVHNAKTKPREEQYNSTYRVVSVLTVLHQDWLNGKEYKCKVSNDALPAPIEKTISKAKGQPREPQVYTLPPSRDELTKNQVSLTCLVKGFYPSDIAVEWESNGQPENNYKTTPPVLDSDGSFFLYSKLTVDKSRWQQGNVFSCSVMHEALHNHYTQESLSLSP light: not shown	124	96	118
IL6R-BP118/IL6R-L (antibody, human IgG1, kappa, Alterations introduced into IL6R-B3) heavy: QVQLQESGPGLVKPSETLSLTCAVSGHSISHDHAWSWVRQPPGEGLEWIGFISYSGITNYNPSLQGRVTISRDNSKNTLYLQMNSLRAEDTAVYYCARSLARTTAMDYWGEGTLVTVSSASTKGPSVFPLAPSSKSTSGGTAALGCLVKDYFPEPVTVSWNSGALTSGVHTFPAVLQSSGLYSLSSVVTVPSSSLGTQTYICNVNHKPSNTKVDKKVEPKSCDKTHTCPPCPAPELLGGDSVFLFPPKPKDTLMISRTPEVTCVVVDVSHEDPEVKFNWYVDGVEVHNAKTKPREEQYNSTYRVVSVLTVLHQDWLNGKEYKCKVSNSALPAPIEKTISKAKGQPREPQVYTLPPSRDELTKNQVSLTCLVKGFYPSDIAVEWESNGQPENNYKTTPPVLDSDGSFFLYSKLTVDKSRWQQGNVFSCSVMHEALHNHYTQESLSLSP light: not shown	101	128	104
IL6R-BP119/IL6R-L (antibody, human IgG1, kappa, Alterations introduced into IL6R-B3) heavy: QVQLQESGPGLVKPSETLSLTCAVSGHSISHDHAWSWVRQPPGEGLEWIGFISYSGITNYNPSLQGRVTISRDNSKNTLYLQMNSLRAEDTAVYYCARSLARTTAMDYWGEGTLVTVSSASTKGPSVFPLAPSSKSTSGGTAALGCLVKDYFPEPVTVSWNSGALTSGVHTFPAVLQSSGLYSLSSVVTVPSSSLGTQTYICNVNHKPSNTKVDKKVEPKSCDKTHTCPPCPAPELLGGDSVFLFPPKPKDTLMISRTPEVTCVVVDVSHEDPEVKFNWYVDGVEVHNAKTKPREEQYNSTYRVVSVLTVLHQDWLNGKEYKCKVSNMALPAPIEKTISKAKGQPREPQVYTLPPSRDELTKNQVSLTCLVKGFYPSDIAVEWESNGQPENNYKTTPPVLDSDGSFFLYSKLTVDKSRWQQGNVFSCSVMHEALHNHYTQESLSLSP light: not shown	117	133	110
